Experimental data reported in publication PMC10766600, “Antigen self-anchoring onto bacteriophage T5 capsid-like particles for vaccine design” (NPJ Vaccines, 2024).

Target: T1, decoration protein pb10 of bacteriophage T5, full length (bacteriophage T5, UniProt Q6QGD6 1-164)
T1 construct: Cloned in pET28b; also called native pb10; unmodified pb10; source: E. coli BL21 (DE3), purified (HisTrap FF, HiTrap SP, Superdex 75)
T1 sequence (looked up): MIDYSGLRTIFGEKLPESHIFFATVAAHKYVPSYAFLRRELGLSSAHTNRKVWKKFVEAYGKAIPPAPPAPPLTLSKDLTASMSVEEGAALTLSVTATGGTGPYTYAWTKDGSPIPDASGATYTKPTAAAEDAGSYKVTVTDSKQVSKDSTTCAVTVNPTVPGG
Assay: SPR; T5 CLPs captured on a CM5 chip through covalently coupled rabbit polyclonal anti-capsid antibodies (about 900 RU); pb10 or chimeras injected at 0.25-4 nM for 200 s at 50 µL/min; 25 °C; PBS with 0.05% Tween 20 and 1 mg/mL BSA; simple Langmuir model
Conditions: both partners purified

B1: bacteriophage T5 capsid-like particles (T5 CLPs) (complex)
chain: AVNQSSSVEVSSESYETIFSQRIIRDLQKELVVGALFEELPMSSKILTMLVEPDAGKATWVAASTYGTDTTTGEEVKGALKEIHFSTYKLAAKSFITDETEEDAIFSLLPLLRKRLIEAHAVSIEEAFMTGDGSGKPKGLLTLASEDSAKVVTEAKADGSVLVTAKTISKLRRKLGRHGLKLSKLVLIVSMDAYYDLLEDEEWQDVAQVGNDSVKLQGQVGRIYGLPVVVSEYFPAKANSAEFAVIVYKDNFVMPRQRAVTVERERQAGKQRDAYYVTQRVNLQRYFANGVVSGTYAAS
modifications: DNA-free expanded capsid lacking pb10 (T5 dec deletion, stAmN5). Mature pb8 after removal of the scaffolding domain; limits from the UniProt chain feature, matching the 299 aa entity of PDB 6OMC/6OMA.
Kd: 1.5 to 2.3 pM
